In paper PMC8421406, “C9orf72-derived arginine-rich poly-dipeptides impede phase modifiers” (Nature Communications, 2021):
Values belong to the binder of their own block, whether it stands above or below them.

What was measured:
Conditions in all cases: both partners purified
[1] = target: T1, mCh:FUS-LC (mCherry fusion LC-domain of FUS, residue 2–214), as hydrogel (UniProt P35637 2-214); test: hydrogel binding assay; 1 µM purified GFP-fused protein pipetted onto hydrogel droplets of the mCherry-fused LC-domain, overnight, confocal microscopy; ± Kapβ2 (0.1, 0.3, 1.0 µM) ± PR20; 20 mM Tris-HCl pH 7.5, 150 mM NaCl, 20 mM β-mercaptoethanol, 0.1 mM PMSF, 0.5 mM EDTA
T1 construct: fused in sarcoma (FUS), LC-domain, residue 2–214; Polymerised in the hydrogel; plasmid from the Steven L. McKnight Laboratory; source: E. coli BL21(DE3), purified (Ni-NTA Agarose), prepared as hydrogel droplets; not shown: mCherry, N-terminal, kept
T1 sequence (looked up): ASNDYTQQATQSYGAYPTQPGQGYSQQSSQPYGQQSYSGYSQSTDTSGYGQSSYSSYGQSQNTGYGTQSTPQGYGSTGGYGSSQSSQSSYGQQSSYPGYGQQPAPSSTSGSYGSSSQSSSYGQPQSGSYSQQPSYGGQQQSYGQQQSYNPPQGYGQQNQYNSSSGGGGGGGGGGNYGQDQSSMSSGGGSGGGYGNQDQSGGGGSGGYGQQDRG

karyopherin-β2 (Kapβ2) = target: T2, karyopherin-β2 (Kapβ2) (UniProt Q92973 1-898, for NMR: [U-2H; Ile-δ1-13CH3; Leu, Val-13CH3/12CH3]-labeled); test: SEC-MALS; Superdex200 10/300 GL; 28 µM Kapβ2 injected in the absence and presence of 55 µM MBP:PR18; 20 mM HEPES pH 7.4, 150 mM NaCl, 2 mM MgCl2, 10% glycerol, 2 mM β-mercaptoethanol
T2 construct: karyopherin-β2 (Kapβ2), nuclear import receptor; Expressed as GST fusion from pGEX6P-1; also called isotopically labeled Kapβ2; source: E. coli BL21(DE3), purified (GSH Sepharose, HRV3C cleavage, anion exchange, gel filtration); not shown: GST, N-terminal, cleaved
T2 sequence (looked up): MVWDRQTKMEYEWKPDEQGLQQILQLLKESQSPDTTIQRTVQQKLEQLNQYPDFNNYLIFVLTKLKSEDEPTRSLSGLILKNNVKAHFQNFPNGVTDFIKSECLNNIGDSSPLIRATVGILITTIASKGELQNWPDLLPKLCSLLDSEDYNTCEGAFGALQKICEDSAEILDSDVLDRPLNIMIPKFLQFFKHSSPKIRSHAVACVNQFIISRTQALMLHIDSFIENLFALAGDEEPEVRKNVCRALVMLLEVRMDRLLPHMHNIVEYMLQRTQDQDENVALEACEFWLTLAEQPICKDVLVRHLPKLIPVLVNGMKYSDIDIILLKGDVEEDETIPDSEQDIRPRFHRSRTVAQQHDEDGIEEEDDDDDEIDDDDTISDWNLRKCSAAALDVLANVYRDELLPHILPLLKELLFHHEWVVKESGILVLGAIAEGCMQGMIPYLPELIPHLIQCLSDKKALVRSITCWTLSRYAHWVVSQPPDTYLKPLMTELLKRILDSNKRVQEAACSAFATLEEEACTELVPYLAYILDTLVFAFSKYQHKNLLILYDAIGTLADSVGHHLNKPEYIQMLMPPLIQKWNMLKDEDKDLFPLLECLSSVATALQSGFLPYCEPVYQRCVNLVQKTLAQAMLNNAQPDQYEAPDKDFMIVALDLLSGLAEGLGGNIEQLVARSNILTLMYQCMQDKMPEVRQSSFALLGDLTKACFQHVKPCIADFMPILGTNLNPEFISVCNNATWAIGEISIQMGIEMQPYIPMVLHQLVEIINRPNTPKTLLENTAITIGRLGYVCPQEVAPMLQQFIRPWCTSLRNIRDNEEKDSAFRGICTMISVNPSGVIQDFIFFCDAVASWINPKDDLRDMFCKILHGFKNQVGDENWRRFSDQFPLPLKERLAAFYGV

[2] = target: T3, Kapβ2 (ΔLoop, residues 321–371 were replaced with GGSGGSGS linker) (UniProt Q92973-2 1-320; Q92973-2 372-890); test: ITC; 200 μM MBP:PR18 titrated into 20 μM Kapβ2 (ΔLoop) in the cell; 25 °C; 20 mM HEPES pH 7.4, 150 mM NaCl, 10% glycerol, 2 mM β-mercaptoethanol; 19 injections of 2 μL
T3 construct: karyopherin-β2 (Kapβ2), the part before the loop, up to residue 320; linker that replaces residues 321–371; karyopherin-β2 (Kapβ2), the part after the loop, from residue 372; source: E. coli BL21(DE3), purified; not shown: GST, N-terminal, cleaved
T3 chain: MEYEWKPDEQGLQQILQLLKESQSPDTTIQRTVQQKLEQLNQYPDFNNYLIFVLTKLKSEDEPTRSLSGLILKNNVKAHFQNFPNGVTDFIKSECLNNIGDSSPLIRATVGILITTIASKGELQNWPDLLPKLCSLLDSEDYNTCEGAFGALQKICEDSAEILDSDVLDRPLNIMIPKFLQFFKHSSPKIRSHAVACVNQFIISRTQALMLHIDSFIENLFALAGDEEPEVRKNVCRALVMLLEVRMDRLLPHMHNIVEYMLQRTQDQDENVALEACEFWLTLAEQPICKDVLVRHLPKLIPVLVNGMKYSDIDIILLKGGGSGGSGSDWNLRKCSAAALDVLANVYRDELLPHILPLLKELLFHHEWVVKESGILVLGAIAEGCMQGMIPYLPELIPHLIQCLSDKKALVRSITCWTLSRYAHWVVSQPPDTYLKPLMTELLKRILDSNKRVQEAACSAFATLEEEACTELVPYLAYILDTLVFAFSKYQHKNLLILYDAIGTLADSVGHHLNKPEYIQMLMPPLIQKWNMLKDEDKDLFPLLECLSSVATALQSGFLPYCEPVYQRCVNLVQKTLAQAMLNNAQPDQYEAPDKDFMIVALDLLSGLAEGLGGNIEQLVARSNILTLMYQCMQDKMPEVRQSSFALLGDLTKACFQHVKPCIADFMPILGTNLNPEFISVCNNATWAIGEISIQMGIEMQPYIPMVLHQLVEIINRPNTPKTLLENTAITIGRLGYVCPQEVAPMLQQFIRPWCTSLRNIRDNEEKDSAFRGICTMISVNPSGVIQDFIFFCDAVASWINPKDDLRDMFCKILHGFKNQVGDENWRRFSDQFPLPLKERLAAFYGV

- binding result [1]: binds
B1: GFP:FUS-LC (green fluorescent protein fusion LC-domain of FUS, residue 2–214) (domain or fragment, UniProt P35637 2-214, looked up)
chain: T1 sequence (looked up)
notes: fused in sarcoma (FUS), LC-domain, residue 2–214; Plasmid from the Steven L. McKnight Laboratory; source: E. coli BL21(DE3), purified (Ni-NTA Agarose); not shown: GFP, N-terminal, kept

- stoichiometry N (karyopherin-β2 (Kapβ2)): 1
- Kd [2]: 81.3 nM
B2: MBP:PR18 (18 repeats of Pro-Arg) (peptide)
chain: PRPRPRPRPRPRPRPRPRPRPRPRPRPRPRPRPRPR
notes: proline:arginine poly-dipeptide from the C9orf72 repeat expansion; source: E. coli BL21(DE3), purified (amylose resin, cation exchange, gel filtration); not shown: MBP, N-terminal, kept

- binding result [1]: binds
B3: GFP:FUS-LC:NLS (GFP:FUS-LC fusion FUS-NLS, 501–526) (domain or fragment, UniProt P35637 2-214, looked up)
chain: ASNDYTQQATQSYGAYPTQPGQGYSQQSSQPYGQQSYSGYSQSTDTSGYGQSSYSSYGQSQNTGYGTQSTPQGYGSTGGYGSSQSSQSSYGQQSSYPGYGQQPAPSSTSGSYGSSSQSSSYGQPQSGSYSQQPSYGGQQQSYGQQQSYNPPQGYGQQNQYNSSSGGGGGGGGGGNYGQDQSSMSSGGGSGGGYGNQDQSGGGGSGGYGQQDRGGDRGGFGPGKMDSRGEHRQDRRERPY
notes: fused in sarcoma (FUS), LC-domain, residue 2–214; fused in sarcoma (FUS), NLS, residue 501–526; Built with the In-Fusion HD Cloning Kit; also called FUS-LC fusion NLS; source: E. coli BL21(DE3), purified (Ni-NTA Agarose); not shown: GFP, N-terminal, kept
